From a protein production outcome set (Wang et al. 2014)
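Also: failed if final PepcDB status was selected cloned or expressed and not failed if soluble or beyond.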

Assay: label from the status in PepcDB records
With “AQGQRRAPLSVVFTEPQVASVGLSLRQIEDLYADQDAANYVVGQVSFEGQGRSRVMGKNKGLLNVYADRTSGEFLGAEMFGPAAEHIGHLLAWARQQQMTVQAMLTMPFYHPVIEEGLRTALRDAQQKLA” the protein production was “not failed”. In the case of “AQGVGVEAILLLRRECQASHEDALHLGLAEHAPVIELQTLRKLDGQAVSLIFHRYSAVYHELLADYQGGSVRQYLAECGLPLSRAQSLIGARLPSREEAGLLLMPRHMPALTVLTVSCDGAGQPVELSRSVSRSDRFQ”, the protein production is reported as “failed”. In the case of “AQKKTQKTYIPWSNGKLVVSEEGRYLKHENGTPFFWLGETGWLLPERLNRDEAEYYLEQCKRRGYNVIQVQTLNNVPSMNIYGQYSMTDGYNFKNINQKGVYGYWDHMDYIIRTAAKKGLYIGMVCIWGSPVSHGEMNVDQAKAYGKFLAERYKDEPNIIWFIGGDIRGDVKTAEWEALATSIKAIDKNHLMTFHPRGRTTSATWFNNAPWLDFNMFQSGHRRYGQRFGDGDYPIEENTEEDNWRFVERSMAMKPMKPVIDGEPIYEEIPHGLHDENELLWKDYDVRRYAYWSVFAGSFGHTYGHNSIMQFIKPGVGGAYGAKKPWYDALNDPGYNQMKYLKNLMLTFPFFERVPDQSVIAGQNGERYDRAIATRGNDYLMVYNYTGRPMEVDFSKISGAKKNAWWYTTKDGKLEYIGEFDNGVHKFQHDSGYSSGNDHVLIVVDSSKDYVKKDCYQIDTHE”, the protein production is reported as “not failed”. For “ARNGDDCPLGPGRCCRLHTVRASLEDLGWADWVLSPREVQVTMCIGACPSQFRAANMHAQIKTSLHRLKPDTEPAPCCVPASYNPMVLIQKTDTGVSLQTYDDLLAKDCHCI”, the protein production was “failed”. With “ARQRFIYIARHRSENIAYYAQALKIDGMVLKAESRRFYPLAEEASQLIGFTDVDDQQGSEGLERSFNSLLVGKNGKQIIRKDARGNVIENIRDEKQYDPQDVMLSID” the protein production was “failed”. For “ASEGEKHITVTVIHGDQTENVFEFDTDAKYLGEVLESENLVDGESGEYGLFITTVDEETADDSKQQWWCITKGGEQVNTSADQTPVSDGDAFELTLKEGY”, the protein production was “not failed”. With “ATRRYYLGAVELSWDYMQSDLGELPVDARFPPRVPKSFPFNTSVVYKKTLFVEFTDHLFNIAKPRPPWMGLLGPTIQAEVYDTVV” the protein production was “failed”. In the case of “AVYLDCRDLQRTWEVIFNLFEPELQEFTRKVPINHIRQLVEHKHAKPVFSSPIVEGETVMVSCQFTCMEKTIKVYGFGSNKDQAKLSAAKHALQQLSKCDA”, the protein production is reported as “failed”. In the case of “CEGGVDMQQSQVQLQCPLTPPRGLQVSIQGEAVAVRPGEDVLFVVRQEQGDVLTTKYQVDLGDGFKAMYVNLTLTGEPIRHRYESPGIYRVSVRAENTAGHDEAVLFVQV”, the protein production is reported as “not failed”. In the case of “CFVTRIRLLDSNVIECTLSVESTGQECLEAVAQRLELRETHYFGLWFLSKSQQARWVELEKPLKKHLDKFANEPLLFFGVM”, the protein production is reported as “failed”. In the case of “DDDEPGGKGAMYEVTIEQSGDFRSFIKSVVVVANGTQLKDGATGESLASPVILSDEELAVEKVTLSTTGKAIEFAVSGGVVDGEDGVVNEPMQWVVTVYKNGKEIEKKSLVFRDGKEISTDDLNLYYN”, the protein production is reported as “not failed”. With “DDFEDSLEYLEPLDHDAYIVRLNFTGENTTEPIISYMTKTHNIDVNILEADIKNTKNGSLGFLVIHIPHISEEHFKQFKHNLHEQHVNVEVLKHG” the protein production was “not failed”. With “DDGVVAAAAFDADRTDPDTLCVRYITVRQDRQGDRLGARLLRFVRERATERGFEHVSIGVNNPFSYQAAYRAGFCFSG” the protein production was “failed”. For “DDLIFYKGVDGRYLGANKAFCDFFGKESMEGLSDADILDAEQLRLTQKSDEEVVRFRKNIRLEYGGGHPLRGRFFFSITKSPILLRGKVVGILGIARD”, the protein production was “failed”. In the case of “DDPEQFEVIKQQKEIIEHGIELFNKKPKRGIQFLQEQGMLGTSVEDIAQFLHQEERLDSTQVGDFLGDSARFNKEVMYAYVDQLDFCEKEFVSALRTFLEGFRLPGEAQKIDRLMEKFAARYIECNQGQTLFASADTAYVLAYSIIMLTTDLHSPQVKNKMTKEQYIKMNRGINDSKD”, the protein production is reported as “failed”. With “DDSLGEAVTTRAEALTIPAVLRARNLLSTTVARTPLVCDGTLPPFVPVAAPPGAATMQTPFHRMLATADDLLFNGVACWALDRDESGTCIGAIHIPLDTWQIEENTVRVNGKAVDPMEVCIFVGIHGGLLTHASETFTDARNLVRAAARVAQNPAALIELRQTNNAQLSPDDVDRIINGYVAARRGRNSGVGFSSSGLEVHEHEMAKENLLIEGRNAAAVDVARAMNVPAAFIDATVGGTSLSYQNAASRMIELVTFGVEPLMSAIEARLNQPDMHADHLANPLKFDPAALLDAIPTTPTIGAQPHGENS” the protein production was “not failed”. In the case of “DEETKAFEALLSNIVKPVASDIQARTVVLTWSPPSSLINGETDESSVPELYGYEVLISSTGKDGKYKSVYVGEETNITLNDLKPAMDYHAKVQAEYNSIKGTPSEAEIFTTLSCEPDIPNPPRI”, the protein production is reported as “not failed”. With “DEGYWDCSVCTFRNSAEAFKCMMCDVRKGTSTRKPRPVSQ” the protein production was “not failed”. For “DFELLHKLGGGNYGDVHLASVKDCNFVCALKRLSIKKLADFDIATQLRREIEIAFNTRHKYLLRTYAYFFDETDIYLIMEPCSNGMLYTELNRVKCFAPPTAARYVAQLAEALLYLHQHHILHRDIKPENILLDHNNNIKLADFGWSVHDPDNRRKTSCGTPEYFPPEIVGRQAYDTSADLWCLGIFCYELLVGKTPFVGKDTDQICKNIHSMHFKIPENIPSEAKDLIANLLLRDGSRRLALHRVVNHQFLLKYYYLPNNL”, the protein production was “not failed”. In the case of “DFPKINHGILYDEEKYKPFSQVPTGEVFYYSCEYNFVSPSKSFWTRITCAEEGWSPTPKCLRLCFFPFVENGHSESSGQTHLEGDTVQIICNTGYRLQNNENNISCVERGWSTPPKCRSTISAEKCGPPPPIDNGDITSFLLSVYAPGSSVEYQCQNLYQLEGNNQITCRNGQWSEPPKCLDPCVISQEIMEKYNIKLKWTNQQKLYSRTGDIVEFVCKSGYHPTKSHSFRAMCQNGKLVYPSCEEK”, the protein production is reported as “not failed”. With “DFRASATRPFTGEEYLASLRDDREIYIYGDRVKDVTSHPAFRNAAASMARLYDALHDPQSKEKLCWETDTGNGGYTHKFFRYARSADELRQQRDAIAEWSRLTYGWMGRTPDYKAAFGSALGANPGFYGRFEDNAKTWYKRIQEACLYLNHAIVNPPIDRDKPVDQVKDVFISVDEEVDGGIVVSGAKVVATNSALTHYNFVGQGSAQLLGDNTDFALMFIAPMNTPGMKLICRPSYELVAGIAGSPFDYPLSSRFDENDAILVMDKVFIPWENVLIYRDFERCKQWFPQGGFGRLFPMQGCTRLAVKLDFITGALYKALQCTGSLEFRGVQAQVGEVVAWRNLFWSLTDAMYGNASEWHGGAFLPSAEALQAYRVLAPQAYPEIKKTIEQVVASGLIYLPSGVRDLHNPQLDKYLSTYCRGSGGMGHRERIKILKLLWDAIGSEFGGRHELYEINYAGSQDEIRMQALRQAIGSGAMKGMLGMVEQCMGDYDENGWTVPHLHNPDDIN” the protein production was “failed”. In the case of “DGAVQYYDGAVTEITEQKRQEQQLRQSRERWRRLVEKLQDGLHIAVDGDIRYINPAGAEILGADAPDDVIGHSLWDFVALEQAQQEIFEDRLRKIYRERTSTAPQEMEITGLNGERRVIESYTVPIKFDGEQAGQTVFRDITEQKEMEQALREREARLRSITENVS”, the protein production is reported as “failed”. In the case of “DHKDLIVVAAKHGYALADRNTGQLSYIRKVWDEQEDPEKARRMRFNDGAVDSHGRFWAGSMNDPKVQKPTNEGVLFRLDPDLQLHRMVEGVSIPNGIGWNLRDDTMYFTDSPTAKIFAFDFDASTGTISNRRVHYDVGEPMEPDGFAIDEEGCIWSAIYGGGKIIRISPEGKLIGEISFPTRNITCPTFVGTELFVTTAKDDVNDEQFPESVRYGGRVYRIDVGVRGKPKNEFRFQK”, the protein production is reported as “failed”. In the case of “DIENSPIKDDNSIIEIFSYGCHYCAINEDNVSQLENRMPEGTRFIRLHISSDKTTGLGRFAPVFATLSVMGIEPQHRQSAYKAVLDDNSDLSDNRQLETWLKANDIDVAKYQQVSQSAEVKALISYMTAVTAHYKIDATPTFIVGKKWIALQDREFPAFSDHLLSLLEHD”, the protein production is reported as “failed”. With “DISSTEIWDAIRRNSFLLYYQPKVDAKTNELIGFEGLIRLKTATAILAPADFFEDIALLNATREMQDFVAETAIEQINQLGGRFSISINIPAHYVVSSNYMTFLYDYVKEHLKYPECLEIEIIERGEITELAVADKNLRKIKKLGVTVSMDDFGKGYSSLAYLRSLPIDIVKTDMSFIALLKTDRKQQIIIQAIVNLCHDLGGKVVTEGVEDIEQVKTLREMKVDYFQGYYFSRP” the protein production was “not failed”. In the case of “DLDGLLQRTVERARDMLDADSAFLLLATDDETELEVRASTGLPSARQRFARVPVDAGPGRYGSARMPAVHDDLTAVPGAVPLLSGTGMRSVVTVPLKVEGRLTGSLGVAAESPSRYSNEEALRLQFAADRIALAVESA”, the protein production is reported as “failed”. In the case of “DLEFQKGVEQILNQYFNSELASGNTKYSEGVYAVVLNPNTGAVLSMAGLEHDLKTGEVSSNALGAVTEVFTPGSVVKGATLTAGWENGVLSGNQVLNDQPIQFAGSSPINSWFTNGSTPLTASQSLEYSSNTYMVQLALKLMGQDYHSGMTLSTDGYKEAMEKLRATYAQYGLGVSTGIDLPGESKGYTPEHYDPSNVLTESFGQFDNYTAMQLAQYAAAVANGGKRIAPHLVEGIYDNNKTGGLGNLVQSIDTKVLNNVSISSDDMGIIKEGFYNVVNGGSYATGKTLAKGASVPISAKTGTAEAYVTGDDGKSVYTSNLNVVAYAPSSNPQIAVAVVLPHETDLHGTTSHAITRDIINLYQKMYPMNQ”, the protein production is reported as “failed”. For “DLEVHGDKDDAELLIIGWGGTYGHLYETMERMRNAGKKVALAHFRFINPLPKNTAEVLQRYPKAVVAEQNLGQFALYLRGEVPGFHPLQFNRVTGQPLVMSEMVEVFTQMMEEK”, the protein production was “failed”. In the case of “DLQAYLQAHYDVLEGKIQLDINGTEIQKGVWVGSGAIIEPGAILNPPCVIGDNCRIESGAVIDSLSVIGNNNVIERDSSVKRSVIWDGNYIEYGSK”, the protein production is reported as “failed”. In the case of “DLRSLFQTTVTEVRKLLVADRVMIIKVRQNKNFSWGEIQAEAQTDDKLCLLPPKERVPLSSRWIDHFAKGLILAMDDTDDQRADFDQSMLALAKANLVVPLFSGDRLWGVLSVHQCDGPRVWESSDIEFALKIALNLGVALQQAELLTESQRRSTALQSALGEVEAQKDYLARIAEEERALTRVIEGIRQTL”, the protein production is reported as “failed”. In the case of “DPDEDSDNSAIYVQGLNDSVTLDDLADFFKQCGVVKMNKRTGQPMIHIYLDKETGKPKGDATVSYEDPPTAKAAVEWFDGKDFQGSKLKVSLARKKPPMN”, the protein production is reported as “not failed”. In the case of “DRNSYSKTDYDATFMRMKEDHMKNGQLKPGYNLQIATNSQFVLSYNVYQNPTDTRTMIPFLNSIQETYGHLPEYIVADAGYGSESNYKAIIDDFNRTPLITYGMFIKDKTKKYKSDIFNTQNWNYDEIN”, the protein production is reported as “failed”. For “DSGYSRETRALLFRAYRHDPTFAYLFNAEREGYEQRVLATIRQLVKQHFLQNQPALGLFLEDRLVGVALIAPPLRRLGVTESWAWRLRMVMDTGLGCTQRYLAYYNAVLACLPSETVHVLPLIGLDPEFQGQKMGQDLSEQLLAALHDWCAVDENSQGIVVDTGNPRYLEFYKRQGYEEIGEIAVGPV”, the protein production was “not failed”. In the case of “DSKDLALCSMILTEMETHEDAWPFLLPVNLKLVPGYKKVIKKPMDFSTIREKLSSGQYPNLETFALDVRLVFDNCETFNEDDSDIGRAGHNMRKYFEKKWTDTFK”, the protein production is reported as “not failed”. For “DSSMKTDVVEHDKDYVVTAELPGFKKDDIHVDYHDETLRISGKTEVNQSAKDDDGRILRQERRSQNVARSFYLPGIDLKNVKATYADGILTLTLPKQTEVDGSHEISID”, the protein production was “failed”.
